The Immune Epitope Database (IEDB)

Experiments:
Experiment in all cases: IEDB peptide-MHC binding, purified MHC/competitive/radioactivity; filed as Kd, often an IC50 or EC50 that approximates it; ≥ and ≤ were set here for values at or beyond the usual limits of such assays
HLA-A*33:01 = target: HLA-A*33:01
HLA-A*03:01 = target: HLA-A*03:01
HLA-A*31:01 = target: HLA-A*31:01
HLA-A*11:01 = target: HLA-A*11:01
HLA-A*68:01 = target: HLA-A*68:01
HLA-A*02:03 = target: HLA-A*02:03
HLA-A*02:06 = details: source organism: Dengue virus 1 Singapore/S275/1990
[1] = source organism: Vaccinia virus WR
[2] = source organism: SARS coronavirus Tor2
[3] = source organism: Mammarenavirus machupoense
[4] = source organism: Mammarenavirus juninense
[5] = source organism: Mopeia Lassa virus reassortant 29
[6] = source organism: Mammarenavirus guanaritoense
[7] = source organism: Mammarenavirus lassaense

| Sequence | Kd (HLA-A*33:01; [1]) | Kd (HLA-A*03:01; [1]) | Kd (HLA-A*31:01; [1]) | Kd (HLA-A*11:01; [1]) | Kd (HLA-A*68:01; [1]) | other results |
| --- | --- | --- | --- | --- | --- | --- |
| WVSLKKTNDK | ≥ 70 µM | 2.09 µM | ≥ 32.7 µM | 608 nM | ≥ 45.5 µM | – |
| KFLEFSNRVY | ≥ 70 µM | ≥ 39.8 µM | 0.0245 µM | 10100 nM | ≥ 68.8 µM | – |
| AAMQRKLEK | – | – | – | – | – | Kd (HLA-A*33:01; [2]): ≥ 77.7 µM; Kd (HLA-A*03:01; [2]): 7.01 µM; Kd (HLA-A*31:01; [2]): ≥ 21.2 µM; Kd (HLA-A*11:01; [2]): 257 nM; Kd (HLA-A*68:01; [2]): ≥ 77.7 µM |
| LSARNKLFKR | 1.71 µM | ≥ 70.1 µM | 0.0169 µM | 2680 nM | 0.124 µM | – |
| YCSTNHLSK | – | – | – | – | – | Kd (HLA-A*33:01; [3]): ≥ 77.7 µM; Kd (HLA-A*03:01; [3]): 19.2 µM; Kd (HLA-A*31:01; [3]): ≥ 77.9 µM; Kd (HLA-A*11:01; [3]): 14900 nM; Kd (HLA-A*68:01; [3]): ≥ 23.1 µM |
| STDNAVYQCR | 2.89 µM | 5.72 µM | 0.427 µM | 35.4 nM | 0.0813 µM | – |
| VSLKKTNDK | ≥ 54.8 µM | 0.193 µM | 8.77 µM | 32.1 nM | 19.4 µM | – |
| LVVISVIFY | ≥ 66.1 µM | ≥ 24.4 µM | 10.7 µM | ≥ 36700 nM | 5.48 µM | – |
| DVQRTRCKY | ≥ 35.3 µM | ≥ 53.9 µM | ≥ 77.9 µM | ≥ 77900 nM | 9.19 µM | – |
| SSFDYCGMDH | – | – | – | – | – | Kd (HLA-A*33:01; [3]): ≥ 48.9 µM; Kd (HLA-A*03:01; [3]): 13.8 µM; Kd (HLA-A*31:01; [3]): 10.6 µM; Kd (HLA-A*11:01; [3]): 6580 nM; Kd (HLA-A*68:01; [3]): 3.4 µM |
| NTIDKSSPLY | ≥ 70 µM | 7.97 µM | ≥ 70 µM | 1660 nM | 0.0854 µM | – |
| VIGLSGDSER | 1.18 µM | ≥ 63.7 µM | 8.89 µM | 15900 nM | 0.182 µM | – |
| DARYCSEFIR | 0.0243 µM | ≥ 70.1 µM | 1.13 µM | ≥ 37200 nM | 0.249 µM | – |
| VSMTYLYNKY | ≥ 70 µM | 15.4 µM | ≥ 28.9 µM | 96.5 nM | ≥ 70.2 µM | – |
| PAAEFRRVAH | – | – | – | – | – | Kd (HLA-A*33:01; [4]): ≥ 24.4 µM; Kd (HLA-A*03:01; [4]): ≥ 70 µM; Kd (HLA-A*31:01; [4]): 9.34 µM; Kd (HLA-A*11:01; [4]): ≥ 69700 nM; Kd (HLA-A*68:01; [4]): ≥ 70.1 µM |
| QMDSMEALEY | ≥ 70 µM | 1.71 µM | ≥ 70 µM | 755 nM | 11.8 µM | – |
| LTKFVAAALH | – | – | – | – | – | Kd (HLA-A*33:01; [5]): 5.61 µM; Kd (HLA-A*03:01; [5]): 16 µM; Kd (HLA-A*31:01; [5]): 0.694 µM; Kd (HLA-A*11:01; [5]): 5660 nM; Kd (HLA-A*68:01; [5]): 0.164 µM |

| Sequence | Kd (HLA-A*33:01; [1]) | Kd (HLA-A*03:01; [1]) | Kd (HLA-A*31:01; [1]) | Kd (HLA-A*11:01; [1]) | Kd (HLA-A*68:01; [1]) | other results |
| --- | --- | --- | --- | --- | --- | --- |
| RTMPNESRVK | ≥ 70 µM | 0.0251 µM | 0.123 µM | 4.57 nM | 1.12 µM | – |
| MFEQYFIYTY | 5.69 µM | 0.0186 µM | 4.51 µM | 2140 nM | 8.11 µM | – |
| IANSNIIKNK | ≥ 39.3 µM | 0.0472 µM | 19.9 µM | 39.5 nM | 0.212 µM | – |
| GLTADARLL | – | – | – | – | – | Kd (HLA-A*02:03; source organism: Homo sapiens): 362 nM |
| AVFKNSFLGK | – | – | – | – | – | Kd (HLA-A*33:01; source organism: Variola virus): ≥ 70 µM; Kd (HLA-A*03:01; source organism: Variola virus): ≥ 70 µM; Kd (HLA-A*31:01; source organism: Variola virus): ≥ 70 µM; Kd (HLA-A*11:01; source organism: Variola virus): ≥ 69700 nM; Kd (HLA-A*68:01; source organism: Variola virus): ≥ 70.1 µM |
| YITIQDRPR | 0.187 µM | ≥ 78 µM | 0.138 µM | ≥ 44800 nM | 0.0262 µM | – |
| DSIKDVIHDY | ≥ 70 µM | ≥ 70.1 µM | 15.4 µM | 5140 nM | 10.2 µM | – |
| TVWEVQGYK | – | – | – | – | – | Kd (HLA-A*33:01; [2]): 0.129 µM; Kd (HLA-A*03:01; [2]): 0.00291 µM; Kd (HLA-A*31:01; [2]): 0.0477 µM; Kd (HLA-A*11:01; [2]): 0.757 nM; Kd (HLA-A*68:01; [2]): 0.000913 µM |
| AMHTALTGA | – | – | – | – | – | Kd (HLA-A*02:03; source organism: Dengue virus 2 Jamaica/1409/1983): 15.1 nM |
| SMTIREFPR | 0.00194 µM | 14.8 µM | 0.000164 µM | 599 nM | 0.2 µM | – |
| TMLDVDLRPA | – | – | – | – | – | Kd (HLA-A*02:06): 16.9 nM |
| IFFTTSLFLH | – | – | – | – | – | Kd (HLA-A*33:01; [6]): 1.04 µM; Kd (HLA-A*03:01; [6]): 1.03 µM; Kd (HLA-A*31:01; [6]): 1.36 µM; Kd (HLA-A*11:01; [6]): 17600 nM; Kd (HLA-A*68:01; [6]): 3.49 µM |
| KSINKVYGRY | ≥ 70 µM | 2.61 µM | 0.0643 µM | 1190 nM | ≥ 33.5 µM | – |
| TLGSFTWFPH | – | – | – | – | – | Kd (HLA-A*33:01; [7]): 13.4 µM; Kd (HLA-A*03:01; [7]): 0.428 µM; Kd (HLA-A*31:01; [7]): 0.782 µM; Kd (HLA-A*11:01; [7]): 4990 nM; Kd (HLA-A*68:01; [7]): ≥ 25.7 µM |
| ALCEKALKY | – | – | – | – | – | Kd (HLA-A*33:01; [2]): ≥ 35.8 µM; Kd (HLA-A*03:01; [2]): 0.234 µM; Kd (HLA-A*31:01; [2]): ≥ 65.1 µM; Kd (HLA-A*11:01; [2]): 1440 nM; Kd (HLA-A*68:01; [2]): 13 µM |
| PIINTHSFY | ≥ 77.7 µM | ≥ 78 µM | ≥ 77.9 µM | ≥ 77900 nM | ≥ 77.7 µM | – |
